Measurements: patent US20050136462

Legend:
[1] = system: Nb.BsaI N441D/R442G (A11) N441D/R442G; experiment: cleavage_in_vitro; settings: bottom-strand nicking; estimated in cell extract
[2] = system: Nb.BsaI R442G R442G; experiment: cleavage_in_vitro; settings: predominant nicking; about 8-fold lower than N441D/R442G

## GGTCTCNNNNN (double strand) [BsaI site (in supercoiled pUC19)]
[1]
  activity (units/g wet cells): 800000
[2]
  activity (units/g wet cells): 100000
